T1: Myc-Smo (6Myc-tagged Smoothened) (Drosophila, UniProt P91682 32-1036)
T1 sequence (looked up): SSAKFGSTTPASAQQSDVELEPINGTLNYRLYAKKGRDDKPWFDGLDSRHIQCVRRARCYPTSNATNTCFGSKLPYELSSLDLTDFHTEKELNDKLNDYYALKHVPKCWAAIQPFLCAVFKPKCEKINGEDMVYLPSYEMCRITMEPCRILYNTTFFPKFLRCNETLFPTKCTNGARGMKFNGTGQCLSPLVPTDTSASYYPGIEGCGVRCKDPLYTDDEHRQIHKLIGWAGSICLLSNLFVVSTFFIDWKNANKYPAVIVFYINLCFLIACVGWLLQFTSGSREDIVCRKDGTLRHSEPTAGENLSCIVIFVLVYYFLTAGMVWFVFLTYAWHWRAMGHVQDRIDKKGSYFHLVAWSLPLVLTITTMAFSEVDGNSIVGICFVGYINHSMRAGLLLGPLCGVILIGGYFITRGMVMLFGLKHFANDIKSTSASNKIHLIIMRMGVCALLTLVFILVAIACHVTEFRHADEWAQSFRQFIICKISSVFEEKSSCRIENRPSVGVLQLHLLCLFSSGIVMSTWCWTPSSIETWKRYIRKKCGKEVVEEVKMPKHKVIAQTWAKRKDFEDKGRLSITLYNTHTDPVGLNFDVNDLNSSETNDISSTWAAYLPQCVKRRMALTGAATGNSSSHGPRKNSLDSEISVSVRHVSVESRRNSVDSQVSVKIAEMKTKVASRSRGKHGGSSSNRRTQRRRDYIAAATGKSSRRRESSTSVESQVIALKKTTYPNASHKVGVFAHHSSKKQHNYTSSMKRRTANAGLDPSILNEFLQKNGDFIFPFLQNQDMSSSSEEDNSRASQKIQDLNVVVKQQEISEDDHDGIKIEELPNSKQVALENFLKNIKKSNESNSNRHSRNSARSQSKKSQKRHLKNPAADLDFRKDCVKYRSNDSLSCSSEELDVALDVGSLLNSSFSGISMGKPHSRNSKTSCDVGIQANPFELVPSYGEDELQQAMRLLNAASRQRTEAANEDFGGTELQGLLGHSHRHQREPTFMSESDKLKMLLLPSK


Molecular target: T1, Myc-Smo (6Myc-tagged Smoothened)
Experiment: co-IP; lysates of stable Myc-Smo S2 cells transiently transfected with pAWF-krz constructs, grown in Hh conditioned medium for 18-24 hrs; immunoprecipitated with anti-Myc agarose at 4°C for 4-16 h with 1 mg/ml BSA (IP buffer: 40 mM Tris-HCl, 200 mM NaCl, 1% Chapso, 0,5% NP40); blotted with anti-Krz serum and anti-Myc
Details: partners not purified

fold of co-immunoprecipitate over wild type Krz | Binder
4 times over wild type Krz | Krz^Leu-Flag (pAWF-Krz^Leu; Leu440-Ile441-Leu443 to Ala) (natural protein, Drosophila, UniProt Q9V393 1-470, looked up) MNGGGGGSGGANVSNGSSTNVTAAGSTGGGSAGDETGGDASSRRQATRVFKKSSSNGKITVYLGKRDFVDHVTHVDPIDGVVFIDPEYVKDRKVFGQVLAAFRYGREDLDVLGLTFRKDLYLAHEQIYPPMQLDRPMTRLQERLIKKLGPNAHPFYFEVPPYCPASVSLQPAPGDVGKSCGVDYELKAFVGENVEDKPHKRNSVRLTIRKVMYAPSKVGEQPSIEVSKEFMMKPNKIHLEATLDKELYHHGEKISVNVHVANNSNRTVKKIKVCVRQFADICLFSTAQYKSVVAEIESEDGCQVAPGFTLSKVFELCPLLANNKDKWGLALDGQLKHEDTNLASSTLITNPAQRESLGIMVHYKVKVKLLISSPLLNGDLVAELPFTLMHPKPEEEEHPLLGERSPRASLAGGGLPLVSMSDGETESATGGQDVPTTTNAAQADDDEAQDDDIIFEDFARLRLKGAETEA
3 times over wild type Krz | Krz^V94D-Flag (pAWF-Krz^V94D) (natural protein, Drosophila, UniProt Q9V393 1-470, looked up) MNGGGGGSGGANVSNGSSTNVTAAGSTGGGSAGDETGGDASSRRQATRVFKKSSSNGKITVYLGKRDFVDHVTHVDPIDGVVFIDPEYVKDRKDFGQVLAAFRYGREDLDVLGLTFRKDLYLAHEQIYPPMQLDRPMTRLQERLIKKLGPNAHPFYFEVPPYCPASVSLQPAPGDVGKSCGVDYELKAFVGENVEDKPHKRNSVRLTIRKVMYAPSKVGEQPSIEVSKEFMMKPNKIHLEATLDKELYHHGEKISVNVHVANNSNRTVKKIKVCVRQFADICLFSTAQYKSVVAEIESEDGCQVAPGFTLSKVFELCPLLANNKDKWGLALDGQLKHEDTNLASSTLITNPAQRESLGIMVHYKVKVKLLISSPLLNGDLVAELPFTLMHPKPEEEEHPLLGERSPRASLAGGGLPLVSMSDGETESATGGQDVPTTTNLIQLDDDEAQDDDIIFEDFARLRLKGAETEA
